From US20210040189A1 (Amgen, published 2021)

T1: human DKK1 (human, UniProt O94907 32-266)
T1 construct: also called huDKK1; hDKK1
T1 sequence: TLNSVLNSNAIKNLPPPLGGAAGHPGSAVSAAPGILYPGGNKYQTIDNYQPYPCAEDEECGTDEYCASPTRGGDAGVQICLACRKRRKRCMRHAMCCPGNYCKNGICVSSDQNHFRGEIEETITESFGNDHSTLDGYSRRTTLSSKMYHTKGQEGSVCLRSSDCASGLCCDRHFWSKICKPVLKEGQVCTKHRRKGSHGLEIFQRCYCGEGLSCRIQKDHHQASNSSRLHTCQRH

T2: mouse DKK1 (mouse, UniProt O54908 32-272)
T2 construct: also called murine DKK1
T2 sequence: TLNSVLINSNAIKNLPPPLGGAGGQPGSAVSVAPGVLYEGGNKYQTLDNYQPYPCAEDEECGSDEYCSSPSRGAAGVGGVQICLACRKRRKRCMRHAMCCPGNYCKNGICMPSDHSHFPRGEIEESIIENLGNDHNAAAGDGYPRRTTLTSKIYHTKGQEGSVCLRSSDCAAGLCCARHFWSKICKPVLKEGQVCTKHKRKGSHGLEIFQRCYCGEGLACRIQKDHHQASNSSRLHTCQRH

T3: T4 (human)
T3 construct: also called tryptic D1 peptide T4
T3 chain: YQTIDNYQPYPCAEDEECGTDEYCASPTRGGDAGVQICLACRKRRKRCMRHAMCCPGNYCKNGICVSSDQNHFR

T4: T3 (human)
T4 construct: a separate HPLC peak; also called tryptic D1 fragment T3
T4 chain 1: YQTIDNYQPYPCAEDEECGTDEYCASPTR
T4 chain 2: GGDAGVQICLACR
T4 chain 3: CMR
T4 chain 4: HAMCCPGNYCK
T4 chain 5: NGICVSSDQNHFR

T5: AspN1 (human)
T5 construct: Two peptides held together by five disulfide bonds in D1
T5 chain 1: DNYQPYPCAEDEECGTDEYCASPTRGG
T5 chain 2: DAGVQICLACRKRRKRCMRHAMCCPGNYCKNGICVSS

T6: T2 (human)
T6 construct: Five peptides held together by the five disulfide bonds of D1; from trypsin digestion of HuDKK1 alone; also called tryptic D1 fragment T2
T6 chain 1: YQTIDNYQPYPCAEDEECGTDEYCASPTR
T6 chain 2: GGDAGVQICLACR
T6 chain 3: CMR
T6 chain 4: HAMCCPGNYCK
T6 chain 5: NGICVSSDQNHFR

T7: AspN2 (human)
T7 construct: a separate HPLC peak
T7 chain 1: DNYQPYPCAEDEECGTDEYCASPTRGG
T7 chain 2: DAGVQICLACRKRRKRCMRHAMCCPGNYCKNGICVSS

T8: huDkk4 (human, UniProt Q9UBT3 19-224, limits assumed)
T8 sequence (looked up): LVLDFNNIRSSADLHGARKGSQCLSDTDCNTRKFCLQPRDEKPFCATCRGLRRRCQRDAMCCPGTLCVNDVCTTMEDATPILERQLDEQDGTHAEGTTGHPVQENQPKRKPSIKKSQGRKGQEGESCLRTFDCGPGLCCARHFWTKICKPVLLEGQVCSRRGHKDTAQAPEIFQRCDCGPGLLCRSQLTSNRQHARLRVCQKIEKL

T9: CNBr1 (human, UniProt O94907 207-266)
T9 construct: Two peptides held together by 5 disulfide bonds; also called CNBr fragment of hDKK1 representing disulfide domain D2; not shown: added C-terminal flag peptide (positions 267-274)
T9 sequence 1: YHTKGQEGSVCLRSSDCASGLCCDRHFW
T9 sequence 2: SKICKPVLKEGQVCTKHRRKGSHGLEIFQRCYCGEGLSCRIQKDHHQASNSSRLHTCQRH

T10: cynomologous DKK1 (cynomolgus monkey, UniProt O94907 32-266 (human entry), limits assumed)
T10 construct: also called cyno DKK1
T10 chain: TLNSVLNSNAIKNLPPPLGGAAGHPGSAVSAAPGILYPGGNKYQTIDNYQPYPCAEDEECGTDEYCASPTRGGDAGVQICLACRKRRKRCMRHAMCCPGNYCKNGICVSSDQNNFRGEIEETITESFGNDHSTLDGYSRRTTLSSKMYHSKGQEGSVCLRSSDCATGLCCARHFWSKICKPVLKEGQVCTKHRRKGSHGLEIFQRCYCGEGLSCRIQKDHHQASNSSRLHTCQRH

B1: 5.25.1 (antibody, V domains shown)
VH: QVQLVQSGAEVKKPGASVKVSCKASGYTFTSYDINWVRQATGQGLEWMGWMDPNSGNTGYAQKFQGRVTMTRNTSISTAFMELSSLRSEDTAVYYCARTDYFYFGMDVWGQGTTVTVSS
VL: DIQMTQSPSSLSASVGDRVTITCQASQDISKDLNWYQQKPGKAPRLLIYDASNLETGVPSRFSGSGSGTDFTFTISSLQPEDIATFYCQQYDHLPIAFGQGTRLEIK
notes: Fully human hybridoma IgG, kappa (Vk)
B2: 5.32.1 (antibody, V domains shown)
VH: QVQLVQSGAEVKKPGASVKVSCKASGFTFTSYDISWVRQATGLGLEWMGWMNPSSGYTGYAQNFQGRVTMTWNTSISTVYMELSSLRSEDTAVYYCARTDYYYYGMDVWGRGTTVTVSS
VL: DIQMTQSPSSLSASVGDRVTITCQASQDISKDLNWYQQKPGKAPKLLIYDASNLETGVPSRFSGSGSGTDFTFTISSLQPEDIATYYCQQYDDLPITFGQGTRLEIK
notes: as for B1
B3: 6.116.6 (antibody, V domains shown)
VH: QVQLVESGGGVVQPGRSLRLSCAASGFTFSGYGMHWVRQAPGKGLEWVAVISYDGNDKYYADSVKGRFTISRDNAKNTLYLQMNSLRAEDTAVYYCARELRVLWGQGTLVTVSS
VL: DIVMTQTPLSLSVTPGQPASISCKSGQSLLHNDGKTYLYWYLQKPGQPPQFLIYEVSNRFSRVPDRFSGSGSGTDFTLKISRVEAEDVGIYYCMQSIQLPWTFGQGTQVEIK
notes: Fully human IgG, kappa (Vk)
B4: 2.40.1 (antibody, V domains shown)
VH: QVQLVESGGGVVQPGRSLRLSCAASGFTFSSYGMHWVRQAPGKGLGWVAVISYDGSDKYYADSVKGRFTISRDNSKNTLYLQMNSLRAEDTAVYYCARDLVDTAMPWGQGTTVTVSS
VL: DIVMTQSPLSLSVTPGQPASISCKSSQSLLHSDGKTYLYWYLQKPGQPPQLLIYEVSNRFSGVPDRFSGSGSGTDFTLKISRVEAEDVGVYYCMQSIQVPWTFGQGTKVEIK
notes: as for B1
B5: 6.37.5 (antibody, V domains shown)
VH: QVQLVESGGGVVQPGRSLRLSCAASGFTFSGYGMHWVRQAPGKGLEWVAVISYDGNDKYYADSVKGRFTISRDNAKNTLYLQMNSLRAEDTAVYYCARELRVLWGQGTLVTVSS
VL: DIVMTQTPLSLSVTPGQPASISCKSGQSLLHSDGKTYLYWYLQKPGQPPQFLIYEVSNRFSRVPDRFSGSGSGTDFTLRISRVEAEDVGIYYCMQSIQLPWTFGQGTQVEIK
notes: Fully human IgG, kappa (Vk)

What was measured:
human DKK1 [1] = molecular target: T1, human DKK1; assay: KinExA 3000 equilibrium binding in solution
Procedure: (§1) Accordingly, the affinity of several of these antibodies to DKK1 was further assessed by an equilibrium binding analysis using the more sensitive KinExAtm 3000. For these measurements, Reacti-Gel 6× beads (Pierce, Rockford, Ill.) were pre-coated with human, cynomologous or mouse DKK1 and blocked with BSA. One hundred pM, 300 pM, or 1000 pM of the antibody was mixed with various concentrations of human, mouse or cyno DKK1, ranging in concentration from 1 pM to 50 nM, and equilibrated at room temperature for 8 hours. The mixtures were then passed over the DKK1-coated beads. The amount of bead-bound anti-DKK1 antibody was quantified using goat anti-human-IgG antibody labeled with a fluorescent tag (Cy5; Jackson Immuno Research, West Grove, Pa.). The amount of fluorescent signal measured was proportional to the concentration of free anti-DKK1 antibody in each reaction mixture at equilibrium. The dissociation equilibrium constant (Kd) was obtained from nonlinear regression of the competition curves using a dual-curve one-site homogeneous binding model using the KinExA software.

mouse DKK1 = molecular target: T2, mouse DKK1; assay: KinExA 3000 equilibrium binding in solution
Procedure: as §1

T4 = molecular target: T3, T4; assay: BiaCore, competition with surface-bound DKK1
human DKK1 [2] = molecular target: T1, human DKK1; assay: BiaCore 2000
Text: BiaCore allowed us to determine the kd of the selected antibodies.

T3 = molecular target: T4, T3; assay: BiaCore
AspN1 = molecular target: T5, AspN1; assay: BiaCore
T2 = molecular target: T6, T2; assay: BiaCore
AspN2 = molecular target: T7, AspN2; assay: BiaCore
huDkk4 = molecular target: T8, huDkk4; assay: BiaCore
CNBr1 = molecular target: T9, CNBr1; assay: BiaCore
human DKK1 [3] = molecular target: T1, human DKK1; assay: cell-based or functional assay
cynomologous DKK1 = molecular target: T10, cynomologous DKK1; assay: KinExA 3000 equilibrium binding in solution
Procedure: as §1

Binder	Kd (human DKK1 [1]) [nM]	Kd (mouse DKK1) [nM]	binding result (T4)	koff (human DKK1 [2]) [s⁻¹]	binding result (T3)	binding result (AspN1)	binding result (T2)	binding result (AspN2)	binding result (huDkk4)	binding result (CNBr1)	ST2 EC50 (human DKK1 [3]) [nM]	TCF EC50 (human DKK1 [3]) [nM]	Kd (cynomologous DKK1) [nM]
B1	0.003	0.15	binds	< 2e-05	no binding	binds	no binding	binds	no binding	no binding	5.96	1.88	–
B2	0.003	0.04	–	0.000191	–	–	–	–	no binding	–	3.48	1.01	–
B3	0.025	0.04	–	2e-05	–	–	–	–	–	–	2.77	4.69	0.04
B4	0.22	0.48	–	6.27e-05	–	–	–	–	–	–	2.47	1.28	0.22
B5	0.03	0.05	–	4e-05	–	–	–	–	–	–	3.98	6.57	0.035
